Source: patent US20040082496

Assays:
[1] = tested on: T1, Mca-Ala-Pro-(Dnp)Lys-OH (AnaSpec MIPH1); experiment: fluorogenic substrate cleavage by purified ACE-2, microtitre plate
T1 sequence: APK

[2] = tested on: T2, Mca-Tyr-Val-Ala-Asp-Ala-Pro-(Dnp)Lys-OH (Caspase 1 substrate, Bachem M-2195); experiment: as above
T2 sequence: YVADAPK

[3] = tested on: T1, Mca-Ala-Pro-(Dnp)Lys-OH (AnaSpec MIPH1)
Neurotensin (1-13) = Neurotensin (1-13) (UniProt P30990)
[4] = tested on: T2, Mca-Tyr-Val-Ala-Asp-Ala-Pro-(Dnp)Lys-OH (Caspase 1 substrate, Bachem M-2195)

Substance: secreted ACE-2 purified from CHO K1 cell supernatant (expression vector pMD37)
- Km [1]: 340 µM
- Km [2]: 130 µM
- kcat/Km [3]: 230000 M⁻¹ s⁻¹
- hydrolysis followed by mass spectroscopy (Neurotensin (1-13)): ACE-2 hydrolyzes Neurotensin (1-13) to Neurotensin (1-12)
- hydrolysis followed by mass spectroscopy (Angiotensin I(1-10)): When treated with ACE-2, mass spectroscopy data shows that Angiotensin I (1-10) is converted to Angiotensin I (1-9)
- hydrolysis followed by mass spectroscopy [4]: ACE-2 hydrolysed this substance between the P1 proline and P1′ (DNP)Lys
- kcat/Km [4]: 42000 M⁻¹ s⁻¹
- hydrolysis followed by mass spectroscopy ((Des-Arg^9) Bradykinin): ACE-2 can hydrolyze des-Arg bradykinin
